For one experiment, the system named is mUCP3 promoter. The experiment is described as follows: NHR-promoter luciferase screen, mUCP3 promoter. It counts as cell-based, mouse. Conditions: for Normalized Luc. act., normalized to control / Luc. act., normalized to lacZ: mUCP3 promoter reporter; for Normalized Luc. act., normalized to control: HR without or with its ligand, relative to control; for Luc. act., normalized to lacZ: hormone receptor (HR) without or with its ligand; for mUCP3 promoter reporter activity: transcription factor +/- ligand, control = 1.00. In a few lines: (§1)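 CV-1 cells were co-transfected with 50 ng NHR (homodimer or NHR/RXR heterodimer), 100 ng promoter-luciferase construct and 50 ng LacZ. Luciferase was normalized to LacZ and to a no-NHR/no-ligand control.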

The next experiment has as its system Bmal1 promoter. The experiment is described as follows: NHR-promoter luciferase screen, Bmal1 promoter. It counts as cell-based, mouse. The settings on record: for Luc. act., normalized to lacZ / Normalized Luc. act., normalized to control: Bmal1 promoter, HR component without or with ligand; for mBmal1 promoter reporter activity: transcription factor +/- ligand, control = 1.00. In outline: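 Luciferase activity was measured 48 h after transfection, normalized to LacZ and then to a control lacking NHR or ligand. CV-1 cells carried 100 ng Bmal1 reporter, 50 ng NHR construct and 50 ng LacZ.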

In another experiment the test system is mADRP promoter. Kind of experiment: NHR-promoter luciferase screen, mADRP promoter. It counts as cell-based, mouse. Conditions: for Luc. act., normalized to lacZ / Normalized Luc. act., normalized to control: ADRP promoter, HR/ligand component; for mADRP promoter reporter activity: transcription factor +/- ligand, control = 1.00. In a few lines: as §1
Another experiment relates to MCP-1 promoter. Kind of experiment: NHR-promoter luciferase screen, MCP-1 promoter. It counts as cell-based. Conditions: for Normalized Luc. act., normalized to control / Luc. act., normalized to lacZ: MCP-1 promoter reporter; for Normalized Luc. act., normalized to control: HR without or with its ligand, relative to control; for Luc. act., normalized to lacZ: hormone receptor (HR) without or with its ligand; for mMCP-1 promoter reporter activity: transcription factor +/- ligand, control = 1.00. In outline:
as §1

In the next experiment the test system is hIFNg promoter. The experiment is described as follows: NHR-promoter luciferase screen, hIFNg promoter. The settings on record: for Luc. act., normalized to lacZ / Normalized Luc. act., normalized to control: IFNg promoter, HR component without or with ligand; for hIFNg promoter reporter activity: transcription factor +/- ligand, control = 1.00. It counts as cell-based, human. In a few lines: as §1

The next experiment deals with mDio2 promoter. The experiment is described as follows: NHR-promoter luciferase screen, mDio2 promoter. It counts as cell-based, mouse. The settings on record: for Luc. act., normalized to lacZ / Normalized Luc. act., normalized to control: Dio2, HR component without or with its ligand; for mDio2 promoter reporter activity: transcription factor +/- ligand, control = 1.00. In outline: as §1

Here are results for two molecules from patent US20110263454A1, “Methods of Identifying Functional Characteristics of Promoters, Transcription Modifying Proteins and Transcription Modulating Agents” (Salk Institute for Biological Studies, priority 2008, published 2011).

B1: DAX-1: DAX1 (NR0B1), cDNA driver (protein, UniProt P51843 1-470, looked up)
Nuclear receptor subfamily 0 …: MAGENHQWQGSILYNMLMSAKQTRAAPEAPETRLVDQCWGCSCGDEPGVGREGLLGGRNVALLYRCCFCGKDHPRQGSILYSMLTSAKQTYAAPKAPEATLGPCWGCSCGSDPGVGRAGLPGGRPVALLYRCCFCGEDHPRQGSILYSLLTSSKQTHVAPAAPEARPGGAWWDRSYFAQRPGGKEALPGGRATALLYRCCFCGEDHPQQGSTLYCVPTSTNQAQAAPEERPRAPWWDTSSGALRPVALKSPQVVCEAASAGLLKTLRFVKYLPCFQVLPLDQQLVLVRNCWASLLMLELAQDRLQFETVEVSEPSMLQKILTTRRRETGGNEPLPVPTLQHHLAPPAEARKVPSASQVQAIKCFLSKCWSLNISTKEYAYLKGTVLFNPDVPGLQCVKYIQGLQWGTQQILSEHTRMTHQGPHDRFIELNSTLFLLRFINANVIAELFFRPIIGTVSMDDMMLEMLCTKI
Turning to B1, in the experiment with mUCP3 promoter, the “Normalized Luc. act., normalized to control” value is reported as 1.3; the “Luc. act., normalized to lacZ” value was found to be 0.89; the “mUCP3 promoter reporter activity” value amounted to 1.31. In addition, in the experiment with Bmal1 promoter, the “Luc. act., normalized to lacZ” value stood at 19.6; the “Normalized Luc. act., normalized to control” value was determined as 1.3; the “mBmal1 promoter reporter activity” value was determined as 1.25. In the experiment with mADRP promoter, the “Luc. act., normalized to lacZ” value was found to be 419.9; the “Normalized Luc. act., normalized to control” value was 0.8; the “mADRP promoter reporter activity” value turned out to be 0.84. Also, in the experiment on MCP-1 promoter, the “Normalized Luc. act., normalized to control” value came to 1.0; the “Luc. act., normalized to lacZ” value worked out at 108.9; the “mMCP-1 promoter reporter activity” value amounted to 1.02. Besides, in the experiment on hIFNg promoter, the “Luc. act., normalized to lacZ” value came out at 24.7; the “Normalized Luc. act., normalized to control” value is given as 1.6; the “hIFNg promoter reporter activity” value was 1.55. In the experiment on mDio2 promoter, the “Luc. act., normalized to lacZ” value was found to be 18.7; the “Normalized Luc. act., normalized to control” value is reported as 1.2; the “mDio2 promoter reporter activity” value worked out at 1.19.

B2: SHP: Small Heterodimer Partner (NR0B2), cDNA driver (protein, UniProt Q15466 1-257, looked up)
Nuclear receptor subfamily 0 …: MSTSQPGACPCQGAASRPAILYALLSSSLKAVPRPRSRCLCRQHRPVQLCAPHRTCREALDVLAKTVAFLRNLPSFWQLPPQDQRRLLQGCWGPLFLLGLAQDAVTFEVAEAPVPSILKKILLEEPSSSGGSGQLPDRPQPSLAAVQWLQCCLESFWSLELSPKEYACLKGTILFNPDVPGLQAASHIGHLQQEAHWVLCEVLEPWCPAAQGRLTRVLLTASTLKSIPTSLLGDLFFRPIIGDVDIAGLLGDMLLLR
Consider B2, for which, in the experiment with mUCP3 promoter, the “Normalized Luc. act., normalized to control” value is listed as 1.1; the “Luc. act., normalized to lacZ” value was determined as 0.77; the “mUCP3 promoter reporter activity” value was 1.15. Further, in the experiment with Bmal1 promoter, the “Luc. act., normalized to lacZ” value was 14.0; the “Normalized Luc. act., normalized to control” value is listed as 0.9; the “mBmal1 promoter reporter activity” value turned out to be 0.89. Also, in the experiment with mADRP promoter, the “Luc. act., normalized to lacZ” value is recorded as 421.4; the “Normalized Luc. act., normalized to control” value is recorded as 0.8; the “mADRP promoter reporter activity” value turned out to be 0.85. In the experiment on MCP-1 promoter, the “Normalized Luc. act., normalized to control” value is given as 1.2; the “Luc. act., normalized to lacZ” value came out at 130.4; the “mMCP-1 promoter reporter activity” value is 1.22. Besides, in the experiment on hIFNg promoter, the “Luc. act., normalized to lacZ” value was 16.0; the “Normalized Luc. act., normalized to control” value came out at 1.0; the “hIFNg promoter reporter activity” value came to 1.01. Besides, in the experiment with mDio2 promoter, the “Luc. act., normalized to lacZ” value worked out at 18.4; the “Normalized Luc. act., normalized to control” value was 1.2; the “mDio2 promoter reporter activity” value came to 1.17.
